Reference: paper PMC10855554
Blank lines part the entries; values can stand above or below the substance they belong to.

Key:
TbTim10-Myc (T. brucei) = assay: co-IP; anti-Myc agarose beads, 1% digitonin-solubilised mitochondrial extract of double-tagged T. brucei cells (day 2 of induction), 50 mM Tris pH 7.2, 50 mM NaCl, 10% glycerol, 12 h at 4 °C; immunoblot, bound fraction as percent of input
TbTim13-HA (T. brucei) = assay: co-IP; anti-HA agarose beads, 1% digitonin-solubilised mitochondrial extract of double-tagged T. brucei cells (day 2 of induction), 50 mM Tris pH 7.2, 50 mM NaCl, 10% glycerol, 12 h at 4 °C; immunoblot, bound fraction as percent of input
TbTim8/13-HA (T. brucei) = assay: as above
TbTim12-HA (T. brucei) = assay: as above
TbTim9-HA (T. brucei) = assay: as above
TbTim10-HA (T. brucei) = assay: as above

Substance: TbTim9-HA (natural protein)
- percent of input co-precipitated (% of the input) (TbTim10-Myc (T. brucei)): 35

Substance: TbTim10-HA (natural protein)
- percent of input co-precipitated (% of the input) (TbTim10-Myc (T. brucei)): 25

The remaining lines, values ahead:

- percent of input co-precipitated (% of the input) (TbTim10-Myc (T. brucei)): 45
Substance: TbTim8/13-HA (natural protein)

- percent of input co-precipitated (TbTim13-HA (T. brucei)): < 10%
- percent of input co-precipitated (% of the input) (TbTim8/13-HA (T. brucei)): 45
- percent of input co-precipitated (TbTim12-HA (T. brucei)): < 10%
- percent of input co-precipitated (% of the input) (TbTim9-HA (T. brucei)): 45
- percent of input co-precipitated (TbTim10-HA (T. brucei)): < 10%
Substance: TbTim10-Myc (natural protein)

- percent of input co-precipitated (% of the input) (TbTim10-Myc (T. brucei)): 30
Substance: TbTim12-HA (natural protein)
